Patent publication US20250177548A1, “FUSOGENIC PEPTIDE COMPOSITIONS AND METHODS OF CARGO DELIVERY” (CLEMSON UNIVERSITY, priority 2022, published 2025)
Non-standard residues stand in square brackets, D forms with d. Primed or numbered codes have the meaning given here. No end group written: not given here. pG″ = pyro form of the N-terminal glycine (pyroglycine); pG = not defined here

Tests used:
RNase A = test: gel assay of siRNA protection from RNase A degradation; assay type: in vitro ADME; settings: 1 hour, several N:P ratios
Procedure: (§1) Gel Shift Assays. DIVA3, DIV3H, and DIV3W (all three denoted as DIV3 (X)) peptides suspended in RNase-free water (10 μM), were thawed, and kept on ice prior to complexation with 10 μM of negative control siGENOME non-targeting siRNA #5 (siNT, GE Healthcare Dharmacon, Lafayette, CO) in RNase-free water and incubated for 20 minutes at room temperature to allow the formation of DIV3 (X)-siNT complexes. Various molar ratios of peptides were complexed with siNT at increasing N:P molar ratios to determine the minimum molar ratio necessary to completely complex free siRNAs using an electrophoretic mobility shift assay. To determine the ability of each peptide variant to protect siRNAs from degradation, DIV3 (X)-siNT complexes or siNT alone was left untreated or incubated with either 50% v/v FBS or 5 μg/mL RNase A at 37° C. for one hour. Next, complexes were dissociated using 6% sodium dodecyl sulfate (SDS). Samples were added to a 2% agarose gel and run at 100 V. Gels were stained with ethidium bromide, destained with Milli-Q water, and imaged using a ChemiDoc XRS imager (Bio-Rad, Hercules, CA).
(§2) Characterization of Nanoparticle Size and Stability. To determine the minimum molar ratio necessary to completely complex free siRNAs, increasing N:P molar ratios of LHRH, DIV3W, and LHRH-DIV3W peptide were complexed with siRNAs and electrophoresed using a electrophoretic mobility shift assay. Molar ratios, shown as N:P, are representations of the molar amine peptide content in relation to 1 mole of phosphate group siRNA content. To determine the ability of the peptides to protect siRNAs from serum- or RNase-mediated degradation, LHRH and LHRH-DIV3W complexes were formed in RNase-free water with siNT at increasing N:P molar ratios and incubated at 37° C., 5% CO2, 50% v/v FBS, 5 μg/mL RNase A, or 50% v/v RNase free water for 1 hour. Peptide/siRNA complexes were dissociated using 6% sodium dodecyl sulfate (SDS) prior to electrophoresis in a 2% agarose gel run at 100 V. Gels were stained with ethidium bromide, washed with Milli-Q water, and imaged with a BioRad ChemiDoc XRS imager (BioRad, Hercules, CA).
(§3) Peptides VA-LD and GF-LD, comprising the cleavable linker VA or GLFG, respectively, between the LHRH target sequence and the DIV3W peptide, and non targeting siRNA were electrostatically complexed at increasing N:P ratios then subjected to agarose gel electrophoresis to determine optimal siRNA binding for each peptide. […] Peptide-siRNA nanocomplexes at increasing N:P ratios for peptides for VA-LD (FIG. 30A) and GF-LD (FIG. 30C) were incubated in either Rnase A enzyme or in 50% fetal bovine serum (FBS) for 1 h, dissociated using SDS then subjected to gel electrophoresis to visualize siRNA bands. Gels showing increasing N:P ratios of peptide:siRNA for VA-LD (FIG. 30B) and GF-LD (FIG. 30D) from 20:1 to 80:1 N:P; white bands are indicative of intact siRNA

CSNK2A1 mRNA = test: qPCR of CSNK2A1 mRNA in OVCAR3 cells; assay type: cell-based; settings: OVCAR3, 48 hours
Procedure: qRT-PCR. Cells were seeded at 50,000 cells per well and treated with siRNA targeting CSNK2A1 (siCSNK2A1 #s3638, Thermo Fisher Scientific) at increasing N:P ratios and incubated for a total of 48 hours in McCoys 5A/DMEM-10% FBS. Treated cells were washed with 1×PBS at 24 hours and fresh media was added. RNAisolation was completed using a Qiagen Mini-RNeasy Kit (Qiagen, Hilden, Germany) according to the manufacturer's protocol. RNA isolation quality and quantity were measured through the Gen5 protocol using a Take3 plate (BioTek). RNA was reverse-transcribed using the QuantiTect Reverse Transcription kit (Qiagen). Quantitative real-time PCR was completed with a QuantStudio 3 qPCR system (Applied Biosystems) using Applied Biosystems TaqMan FAST Master Mix (Thermo Fisher) and CSNK2A1 (ID #Hs00751002_s1) and 18S (ID #Hs99999901_s1) predesigned TaqMan probes, according to the manufacturer's protocol.
Gene and Protein Knockdown. Bioactivity of siRNAs was determined via qPCR and western blot analysis. OVCAR3 or CAOV3 cells were seeded at 50,000 cells per well as previously described and treated with siRNA targeting CSNK2A1 and siNT at N:P ratios 30:1, 40:1, 50:1, 60:1, and 70:1. LHRH-DIV3W peptide complexed with either siNT or siCSNK2A1 was incubated for a total of 48 hours in RPMI 1640/DMEM-10% FBS, with one media exchange occurring after the 24-hour timepoint. Treated cells were washed with 1×PBS at 24 hours and fresh media was added. RNA isolation was completed using a Qiagen Mini-RNeasy Kit (Qiagen, Hilden, Germany) according to the manufacturer's protocol. RNA isolation quality and quantity was measured through the Gen5 protocol using a Take3 plate (BioTek). RNA was reverse transcribed using the QuantiTect Reverse Transcription kit (Qiagen) according to the manufacturer's protocol. Quantitative real-time PCR was completed with a QuantStudio 3 qPCR system (Applied Biosystems, Waltham, MA) using Applied Biosystems TaqMan FAST Master Mix (Thermo Fisher) and CSNK2A1 (ID #Hs00751002_s1) and 18S (ID #Hs99999901_s1) predesigned TaqMan probes according to the manufacturer's protocol.

[1] = gel assay of siRNA protection from degradation in 50% serum; assay type: in vitro ADME; settings: 50% FBS, 1 hour, several N:P ratios
Procedure: as §1, §2, §3

[2] = dynamic light scattering, size and zeta potential of peptide/siRNA complexes; assay type: physicochemical; settings: for zeta potential: DIV3 (X) peptide/siRNA complexes
Procedure: Dynamic Light Scattering and Transmission Electron Microscopy. DIV3 (X)-siNT complexes were prepared at 2 mg/mL in RNase-free water. Hydrodynamic size and surface charge of the peptide/siRNA complexes were determined using a Nano ZS Zetasizer (Malvern Pananalytical, Malvern, UK). All data were recorded using Malvern's Zetasizer software.
To determine nanoparticle size and zeta potential, peptides resuspended in RNase-free water (10 μM) were thawed and kept on ice prior to complexation with 10 μM of siNT in RNase-free water and incubated for 20 minutes at room temperature to form DIV3W-siNT and LHRH-DIV3W-siNT complexes. Peptide complexes were prepared at 2 mg/mL in RNase-free water. Hydrodynamic size and surface charge analysis was conducted using a Malvern Nano ZS Zetasizer (Malvern Panalytical, Malvern, UK). All data was analyzed using Malvern's Zetasizer software.

OVCAR3 cells [3] = test: cellular uptake of labeled siRNA by flow cytometry; assay type: cell-based; settings: for uptake efficiency: OVCAR3, siNT-DY547, 4 hours; for uptake efficiency, tandem vs LHRH peptide: FIG. 10E, 4 hr, cell line not stated
Procedure: Cellular Uptake. OVCAR3 and CAOV3 cells were prepared at 50,000 cells per well in a 24-well plate. […] Post-incubation, media was aspirated and cells were washed with 1× PBS. To counterstain the nuclei, SuperSignal NucBlue Hoechst stain (Thermo Fisher, Waltham, MA) was added to the cells for 30 minutes, followed by an additional 1×PBS wash. Subsequent imaging was performed using an EVOS FL Microscope (Thermo Fisher) at 10× magnification. For flow cytometric analysis, cells were detached, resuspended in 1× PBS, and analyzed using an Attune NXT Acoustic flow cytometer (Invitrogen, Carlsbad, CA) with the blue laser line and BL2 (574/26 nm) channel.
Cellular Uptake and Targeting Specificity. Observation of cell uptake was performed by seeding OVCAR3 and CAOV3 cells at a density of 50,000 cells per well in a 24-well plate. LHRH and LHRH-DIV3W peptides were complexed with […] as previously described and delivered to cells at 20:1 to 80:1 N:P ratios. Each cell line was incubated with tandem peptide complexes for both 4- and 24-hour treatment periods. Following incubation, cell media was removed, and cells were washed with 1× PBS prior to the addition of 500 μL of 1×PBS and SuperSignal NucBlue Hoescht 33342 nuclear stain (Thermo Fisher, Waltham, MA). Cellular imaging was completed using an EVOS FL Microscope (Thermo Fisher) at 10×, 20×, and 40× magnification. Flow cytometry was completed after cell imaging and cells were trypsinized, resuspended in 1×PBS, and analyzed with an Attune NXT Acoustic Flow Cytometer (Invitrogen) with the red laser line and RL2 […] channel.

OVCAR3 cells [4] = test system: OVCAR3 cells
Procedure: (§4) Cells were seeded at 10,000 cells per well with complete culture media in a 96-well plate and incubated overnight to allow the cells to attach. DIV3 (X) peptides were complexed with siNT at 40:1 to 80:1 N:P molar ratios. DIV3 (X)-siNT complexes were incubated with OVCAR3 or CAOV3 cells at a final concentration of 100 nM siRNA and 10% FBS for 24 hours. Media was then aspirated, cells were washed with 1× phosphate-buffered saline (PBS), and fresh media with 10% FBS was added to each well and incubated another 24 hours.
Viability was measured using an MTS Assay performed with CellTiter 96 AQueous One Solution Cell Proliferation Assay (Promega, Madison, WI). Assay reagent was added according to the manufacturer's protocol, and cells were incubated for 4 hours. Absorbance was read using a BioTek Synergy LX (BioTek, Winooksi, VT) plate reader at 490 nm. An MTS cell viability assay was also conducted as described for OVCAR3 and CAOV3 cells treated with DIV3W-siRNA complexes.
OVCAR3 or CAOV3 cells were seeded at 10,000 cells per well with complete culture media in a transparent 96-well plate and incubated overnight to allow the cells to attach. LHRH and LHRH-DIV3W peptides were delivered to cells without siRNA cargo. After 24 hours of incubation the media was exchanged and after another 24-hour incubation at 37° C. in 5% CO2, viability was measured using an MTS Assay performed with the CellTiter 96 AQueous One Solution Assay (Promega, Madison, WI). Assay reagent was added according to the manufacturer's protocol and cells were incubated for 4 hours. Absorbance was read using a BioTek Synergy LX (BioTek, Winooksi, VT) plate reader at 490 nm.

ES2 ovarian cancer cells [5] = test: cellular uptake of cy5 siRNA, microscopy and flow cytometry; assay type: cell-based, human; settings: ES2, 4 hours, N:P ratios of 20:1-40:1
Procedure: Peptides, VA-LD and GF-LD, and cy5 labeled non targeting siRNA were electrostatically complexed at increasing N:P ratios and delivered to human ovarian ES2 cells for 4 hours.

ES2 ovarian cancer cells [6] = test system: ES2 ovarian cancer cells
Procedure: VA-LD and GF-LD peptides were electrostatically complexed with and non targeting siRNA at increasing N:P ratios. Complexes were delivered to human ovarian ES2 cells for 48 hours and analyzed via MTS assay.

[7] = target: T1, luteinizing hormone releasing hormone (LHRH) receptor (UniProt P30968 1-328, limits assumed); test: cell-based or functional assay
T1 sequence (looked up): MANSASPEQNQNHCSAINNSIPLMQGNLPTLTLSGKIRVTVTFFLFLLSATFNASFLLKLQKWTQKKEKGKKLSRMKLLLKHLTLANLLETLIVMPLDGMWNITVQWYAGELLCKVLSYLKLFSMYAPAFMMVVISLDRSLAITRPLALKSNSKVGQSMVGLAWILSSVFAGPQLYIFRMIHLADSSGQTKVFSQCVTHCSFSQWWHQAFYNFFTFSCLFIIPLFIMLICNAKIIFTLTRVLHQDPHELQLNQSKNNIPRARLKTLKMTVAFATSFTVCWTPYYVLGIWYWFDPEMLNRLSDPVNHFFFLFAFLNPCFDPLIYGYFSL

Procedure for CAOV3 cells: as §4
Viability was measured using an MTS Assay performed with CellTiter 96 AQueous One Solution Cell Proliferation Assay (Promega, Madison, WI). Assay reagent was added according to the manufacturer's protocol, and cells were incubated for 4 hours. Absorbance was read using a BioTek Synergy LX (BioTek, Winooksi, VT) plate reader at 490 nm. […]
OVCAR3 or CAOV3 cells were seeded at 10,000 cells per well with complete culture media in a transparent 96-well plate and incubated overnight to allow the cells to attach. […] After 24 hours of incubation the media was exchanged and after another 24-hour incubation at 37° C. in 5% CO2, viability was measured using an MTS Assay performed with the CellTiter 96 AQueous One Solution Assay (Promega, Madison, WI). […] Absorbance was read using a BioTek Synergy LX (BioTek, Winooksi, VT) plate reader at 490 nm.

**Q.** For “WEADIVADIVADIVAGGG-(d) RRRRRRRRR (WEADIVADIVADIVAGGG[dR][dR][dR][dR][dR][dR][dR][dR][dR]) [DIVA3]”, which “intact siRNA after incubation with RNase A” value (“intact siRNA … with RNase A” for short) (RNase A) is on record?
**A.** Reduction of intact siRNA signal

**Q.** And the “CSNK2A1 mRNA silencing (knockdown)” value (CSNK2A1 mRNA; 60:1, vs siNT complex)?
**A.** 47%

**Q.** What about the “intact siRNA after incubation in 50% serum” value (from here on “intact siRNA … in 50% serum”) [1] of the same molecule?
**A.** Reduction of intact siRNA signal

**Q.** What about the zeta potential [2] of the same molecule?
**A.** ~20 mV

**Q.** And the uptake efficiency (OVCAR3 cells [3]; 80:1)?
**A.** 63.6%

**Q.** Which “CSNK2A1 mRNA silencing (knockdown)” value (CSNK2A1 mRNA; 80:1, vs siNT complex) does the source give for “WEADIVADIVHDIVADIVAGGG-(d) RRRRRRRRR (WEADIVADIVHDIVADIVAGGG[dR][dR][dR][dR][dR][dR][dR][dR][dR]) [DIV3H]” here?
**A.** 72%

**Q.** What about the “intact siRNA … in 50% serum” value [1] of the same molecule?
**A.** Reduction of intact siRNA signal

**Q.** And the hydrodynamic diameter ([2]; DIV3 (X) peptide/siRNA complex at 60:1 ratio)?
**A.** around 100 nm

**Q.** What about the zeta potential [2] of the same molecule?
**A.** ~30 mV

**Q.** And the uptake efficiency (OVCAR3 cells [3]; 80:1)?
**A.** 52.1%

**Q.** Which “cytotoxicity of peptide alone” value (OVCAR3 cells [4]) does the source give for “pGHWSY-(d) L-LRP ([pG]HWSY[dL]LRP; reading uncertain) [LHRH, reference compound]” here?
**A.** biocompatibility

**Q.** And the “cytotoxicity of peptide alone” value (CAOV3 cells)?
**A.** biocompatibility

**Q.** And the “uptake efficiency, tandem vs LHRH peptide” value (OVCAR3 cells [3]; 40:1)?
**A.** 34.3%±0.56%

**Q.** And the “uptake efficiency, tandem vs LHRH peptide” value (OVCAR3 cells [3]; 60:1)?
**A.** 34.83%±2.75%

**Q.** And the “uptake efficiency, tandem vs LHRH peptide” value (OVCAR3 cells [3]; 80:1)?
**A.** 33.87%±1.63%

**Q.** With “pGHWSY-LLRPGGGGFLGWEADIVADIVWDIVADIVAGGG-RRRRRRRRR ([pG]HWSY[dL]LRPGGGGFLGWEADIVADIVWDIVADIVAGGG[dR][dR][dR][dR][dR][dR][dR][dR][dR]; reading uncertain) [GF-LD]” as the molecule, how does the “delivery of cy5 siRNA” value (ES2 ovarian cancer cells [5]) read?
**A.** deliver siRNA to ES2 ovarian cancer cells

**Q.** And the “intact siRNA … with RNase A” value (RNase A)?
**A.** protect siRNA in physiologically relevant environments

**Q.** What about the “biocompatibility of peptide/non-targeting siRNA complexes” value (ES2 ovarian cancer cells [6]) of the same molecule?
**A.** biocompatible

**Q.** And the “intact siRNA … in 50% serum” value [1]?
**A.** protect siRNA in physiologically relevant environments

**Q.** For “pGHWSY-LLRPGGGVAWEADIVADIVWDIVADIVAGGG-RRRRRRRRR ([pG]HWSY[dL]LRPGGGVAWEADIVADIVWDIVADIVAGGG[dR][dR][dR][dR][dR][dR][dR][dR][dR]; reading uncertain) [VA-LD]”, which “delivery of cy5 siRNA” value (ES2 ovarian cancer cells [5]) is on record?
**A.** deliver siRNA to ES2 ovarian cancer cells

**Q.** And the “intact siRNA … with RNase A” value (RNase A)?
**A.** protect siRNA in physiologically relevant environments

**Q.** And the “biocompatibility of peptide/non-targeting siRNA complexes” value (ES2 ovarian cancer cells [6])?
**A.** biocompatible

**Q.** And the “intact siRNA … in 50% serum” value [1]?
**A.** protect siRNA in physiologically relevant environments

**Q.** With [pG″]HWSY[dL]LRPGGGGGWEADIVADIVWDIVADIVAGGG[dR][dR][dR][dR][dR][dR][dR][dR][dR] [LHRH-DIV3W tandem peptide] as the molecule, how does the “cell viability (MTS), OVCAR3 cells, peptide without siRNA at the 20:1 ratio” value [7] read?
**A.** 110%
